Test results: article PMC7062800

Columns and labels:
[1] = target: RdhK6 (CprK1) (Desulfitobacterium hafniense DCB-2) (UniProt Q18R04); experiment: EMSA; settings: 200 uM Cl-OHPA; EMSA: 100 ng DNA, 2 uM protein, 200 uM effector, 15 uL; buffer 100 mM Tris-HCl pH 8.5, 40% glycerol, 10 mM MgCl2, 500 mM NaCl, 5 mM EDTA, 10 mM DTT …
[2] = system: RdhK1 (CprK4) (Desulfitobacterium hafniense DCB-2); experiment: EMSA; settings: no effector; EMSA: 100 ng DNA, 2 uM protein, 200 uM effector, 15 uL; buffer 100 mM Tris-HCl pH 8.5, 40% glycerol, 10 mM MgCl2, 500 mM NaCl, 5 mM EDTA, 10 mM DTT …

GAATTCTCAGGCGATGTAACCGCTTTCAAAGTTAATACACATTAATACTCTTAACAATGTGATAGCTATGATTGCACCG (double strand) [mgl-DB7]
binding signal [1]: 100 % DNA bound
binding signal [2]: 10 % DNA bound

GAATTCTCAGGCGATGTAACCGCTTTCAAATTTAGTATACGCTAAATATCTTAACAATGTGATAGCTATGATTGCACCG (double strand) [mgl-DB8]
binding signal [1]: 100 % DNA bound
binding signal [2]: 80 % DNA bound
